US8901069B2, “Protein matrix for light-initiated electron transfer” (Research Foundation of The City University of New York, priority 2009, dated 2014)
Numbering of substitutions follows the chain as printed.

How the values were obtained:
[1] = Reduction potential of polypeptide-bound heme/ferric cofactor vs. hydrogen electrode; type: physicochemical
Experimental: In Example 2, the reduction potential of the peptides prepared in Example 1 is regulated by modulation of peptide ionic charge and cofactor structure. The net charge of the polypeptides is calculated using conventional methods known in the art.

[2] = Heme binding affinity by titration of heme into anaerobic protein solution; details: oxidized heme; read-out: oxidized heme binding constant
[3] = type: physicochemical
Experimental: The reduced heme binding constants are also measured for His42→Phe mutants of the polypeptides.

Molecule: CGGGEIWKQHEEALKKFEEALKQFEELKKL (listed as Chemical synthesis) [HP-1]
- reduction potential difference spanned by three distinct ferric cofactors bound via bis-histidine ligation ([1]; three ferric cofactors, FIG. 4A): approximately 400 mV

B1: GEIWKQHEDALQKFEEALNQFEDLKQLGGSGCGSGGEIWKQHEDALQKFEEALNQFEDLKQL (protein, listed as Chemical synthesis)
chain: GEIWKQHEDALQKFEEALNQFEDLKQLGGSGCGSGGEIWKQHEDALQKFEEALNQFEDLKQL
notes: homodimeric helix-loop-helix variant of HP-6, recombinantly expressed in E. coli
- Kd [2]: 220 pM
- reduction potential of heme complex, more positive than HP-1-heme complex ([1]; difference vs HP-1-heme complex, earlier experiments): 45 mV

B2: CC-9: HP-7 peptide with specific Glu→Ala mutations (protein, listed as Chemical synthesis)
chain: B1 chain with E43A, E50A, E57A
- increase in bound heme reduction potential compared to HP-7 ([1]; difference vs HP-7, FIG. 4B): 101 mV

B3: CC-10: HP-7 modified to incorporate the preferred consensus sequence (protein, listed as Chemical synthesis)
chain: B1 chain with W39L, E43A, L46A, F49I, E50F
- Kd [2]: 10.7 pM
- stability of heme-bound complex [3]: long-term stability
